The record followed here is a protein production outcome set (Wang et al. 2014).
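Note: failed if final PepcDB status was selected cloned or expressed and not failed if soluble or beyond.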

A short description of the data set: label from the status in PepcDB records.
For “MLVLILLSSSLAIFAIINLSYSLGDAKAINASGSLRMQSYRLMFYANSGSEAAQEKITEFENTLHSEALHPSKSWLSPKKIAAQYQLVIDKWLVMKYYIEQENSRDYAASLKDFVDTIDLLVLEMEHHAAFKLRLLAASQIFGLGLMLSIAFLAVRFTKRKVVVPLQQLMESANTISKGNFEIEMPETEYIELTALTDALQKTARELATLYGNLESQVAEKTLALTRANNELAFLYDTLLTLNAKKLDYKALKAALNQLKDYESIDYLRLIIQYPEQELEMIEANGGWPESADNSTRFPLQFEQANLGYLELISAQDINTPLFKNFAIMLTRSIVIHNATEQRQQLALMEERGVIARELHDSLGQVLSFLKIQISLLRKNLDHSCRSPAVEVQLTEINEGVSTAYVQLRELLSTFRLTIKEPNLKNAMEAMLEQLRANTDIKIHLDYKLSPQWLEAKQHIHILQITREATLNAIKHANASHINIRCYKDDRGMVNISVSDNGVGIGHIKERDQHFGIGIMHERASKLDGEVVFSSNDTHTNSTATTEQRHQENPDSPLESHNTSNLSQGTIVTLIFPSQQEPTHG”, the protein production entry is “failed”. The entry for “MKIVSKSSPLPLHYQLKMILQEMIENEELLPGDTIPTERELCEIQKISRMTVNKAILSLVSEGILYREQGKGTFVAKKKEKQQLTKLKSFTEEMREKGLNISTKILSFEIKTATKHISTLLELPHKKMKVIEIIRLRLTDNDPSAIETVVLPLYLFSDMTKEVIDGKSLYNTFREKYGYEPTKAKQTIEPIMLTDYEAKFLNQVGNSLALLFRRLTYRKDGVPIEYTKSIYRSEKYKYEVILT” is “failed”. The entry for “MNALPSSAEFSRAVGGDAVSREAVIRIEHLSKTFSDAAGPVLDDVSLTIRRGEIHGIIGRSGAGKSTLVRCINLLERPSAGRVIVSGREITSLRGRALRNARRDIGMIFQHFNVLSSHTVAGNVALPFKVAGLPRAEIARRIPPLLELVGLAHKADAYPSELSGGQKQRVGIARALALDPSVLLCDEATSALDPETTDQILALLRDINRKLGLTIVLITHEMHVVRDIATRVAVLDHGRVVEEGATFDVLAFPKSAVARSFLSGLVAHELPPPVAAQLLPAAVPGSDPVLRIVFTGTAAHDPIVADLVSVFGIQPNILHGRIDYVGDRPLGVLTLVAGGAGEKLPAVLSHLSSLGLVVEVIGHAVRSAVARRHSAARLEHHHHHH” is “failed”; for “MSNVSALPIQPETTPSGGGSVRDRVSPQEWEVRVKLAAAYRLAALKRWTDHIYTHFSARVPGPDEHFLINAFGLLFDEITASNLVKVDIDGTIVDDPTGLGINYAGYVIHSAIHAARHDLQAVLHTHTRDGIAVSAQKGGLLPISQHSIAFSGRVAYHGYEGIALDLSERERLVADLGDKSVMILRNHGLLTGGVSVEHAFQQLHALEYACNIQIAAQSAGNDELVFPPQEVIARVEEQAKVIKDGHGPGVARHWNALIRELERSGTDYRE” it is “failed”.

In the case of “MVNQEKTLDVGFTHADFAALLDRYDYHFNPGDIVAGTVFSIEPKGALIDIGAKTAAYIPIQEMSINRIESPEEVLQPNETREFFILADENEEGQLTLSIRRIEYMRAWERVRQLQAEDATVRSQVFATNRGGALVRIEGLRGFIPGSHISTRVNKEELVGEELPLKFLEVDEERNRLVLSHRRALVERKMNKLEVGEVVVGTVRGIKPYGAFIDIGGVSGLLHISEISHDHIDTPHSVFNVNDQVKVMIIDLDAERGRISLSTKQLEPEPGDMVKNPQLVYEKAEEMAERYRQQLLQQQQQAAGETPEEGMEDIPEATEDDSPAPILQEALEHHHHHH”, the protein production entry is “failed”. With “MGHHHHHHSHRGAGRVSRWPPPHWLEAWRVSPRPLSPLSPATFGRGFIAVAVIPGLWARGRGCSSDRLPRPAGPARRQFQAASLLTRGWGRAWPWKQILKELDECYERFSRETDGAQK”, the protein production result is “failed”. The result for “MDNVGCDKRISWPCHCSKSRTAPRRGSHLMARGRKRRFNPNIPGHIEQEALPKGIYWENGRWYMHEDHPDGGRQVKRTVAFRSARLSELHAIAESRLRGDVRGTLRYLFDRFHEASEFKELQHDTQKDYRRYADTLANYVRKDGSKLGGVQLEHITTPVVQRLLETFANGRPATRLQQALPPTPSKANHLYRYLRRTLAWGVRHGYCKENPAIGVLQAKEAKAFRMPTPDAFEAVLQFARERGALKPHTKGSFPSYLPPVMVLAYSARLRGIEVCSLTDAHRLEHGVHASRRKGSRDTLTTWDAHMTEAWEALLARRSEICNKPGRNFPIPMKPEERFFLIEQTGNPIVKSSLDSAWQRFIPAAIRDGVIKSEERFSLHGLKHRGVTDTEGNRGDKQDAAGHVSSSMTDRYDHELPVVKPPRRR” reads “failed”.
